Results published in the Human Domainome abundance scans (Beltran et al. 2025).
± gives the uncertainty stated by the source.

B1: Dystrobrevin alpha, residues 235 to 294; numbered along this chain, Q9Y4J8 (parent)
chain: ENVFHPVECSYCHSESMMGFRYRCQQCHNYQLCQDCFWRGHAGGSHSNQHQMKEYTSWKS

Variants of: B1
Assay: abundance fitness (aPCA) (normalised: wild type 0, dead -1); higher = more abundant; growth selection in yeast, the domain comes from the species named
Details: Homo sapiens

Going from H5F to H5N, the abundance fitness rises from -0.201 ± 0.18 to 0.259 ± 0.085.

H5G and H5W are within error of each other in abundance fitness: -0.127 ± 0.055 for the first, -0.143 ± 0.062 for the second.

H5A and H5L are within error of each other in abundance fitness: -0.195 ± 0.066 for the first, -0.125 ± 0.043 for the second.

H5M and H5Q are within error of each other in abundance fitness: -0.114 ± 0.06 for the first, -0.195 ± 0.09 for the second.

H5K and H5E are within error of each other in abundance fitness: -0.028 ± 0.092 for the first, 0.145 ± 0.081 for the second.

First: H5I
Second: H5P
The abundance fitness of the first is higher: 0.321 ± 0.1 for the first, -0.102 ± 0.074 for the second.

Going from H5C to H5R, the abundance fitness falls from -0.024 ± 0.061 to -0.176 ± 0.045.

Y11Q and Y11G are within error of each other in abundance fitness: -0.223 ± 0.1 for the first, -0.099 ± 0.052 for the second.

Y11N and Y11S are within error of each other in abundance fitness: -0.256 ± 0.071 for the first, -0.219 ± 0.061 for the second.

Going from Y11R to Y11V, the abundance fitness rises from -0.37 ± 0.055 to -0.193 ± 0.052.

First: Y11P
Second: Y11T
The abundance fitness of the first is lower: -0.658 ± 0.14 for the first, -0.201 ± 0.079 for the second.

Going from Y11D to Y11M, the abundance fitness rises from -0.313 ± 0.084 to -0.055 ± 0.071.

Y11I and Y11A are within error of each other in abundance fitness: -0.191 ± 0.095 for the first, -0.208 ± 0.076 for the second.

Going from Y11C to Y11F, the abundance fitness rises from -0.247 ± 0.073 to 0.039 ± 0.068.

Y11W and P6C are within error of each other in abundance fitness: -0.155 ± 0.067 for the first, -0.137 ± 0.06 for the second.

P6L and P6Q are within error of each other in abundance fitness: -0.176 ± 0.04 for the first, -0.191 ± 0.075 for the second.

P6R and P6E are within error of each other in abundance fitness: -0.029 ± 0.043 for the first, -0.045 ± 0.064 for the second.

P6M and P6N are within error of each other in abundance fitness: -0.071 ± 0.056 for the first, 0.049 ± 0.086 for the second.

Compared with P6Y, P6D is higher in abundance fitness: -0.218 ± 0.069 for the first, 0.079 ± 0.066 for the second.

Going from P6W to P6A, the abundance fitness rises from -0.127 ± 0.052 to 0.07 ± 0.05.

P6I and P6V are within error of each other in abundance fitness: -0.039 ± 0.078 for the first, -0.089 ± 0.04 for the second.

P6F and P6G are within error of each other in abundance fitness: -0.091 ± 0.072 for the first, -0.063 ± 0.042 for the second.

H13Q and H13M are within error of each other in abundance fitness: -0.172 ± 0.084 for the first, -0.109 ± 0.054 for the second.

Going from H13V to H13L, the abundance fitness rises from -0.457 ± 0.063 to -0.176 ± 0.045.

Going from H13E to H13G, the abundance fitness rises from -0.23 ± 0.093 to -0.027 ± 0.048.

H13S and H13F are within error of each other in abundance fitness: -0.096 ± 0.073 for the first, -0.243 ± 0.11 for the second.

Compared with H13D, H13R is higher in abundance fitness: -0.474 ± 0.079 for the first, -0.061 ± 0.055 for the second.

First: H13T
Second: H13P
The abundance fitness of the first is higher: -0.076 ± 0.055 for the first, -0.677 ± 0.081 for the second.

H13A and H13N are within error of each other in abundance fitness: -0.107 ± 0.058 for the first, -0.169 ± 0.11 for the second.

H13C and H13K are within error of each other in abundance fitness: -0.176 ± 0.12 for the first, -0.027 ± 0.068 for the second.

Going from H13I to V7L, the abundance fitness rises from -0.406 ± 0.19 to -0.045 ± 0.054.

V7P and V7D are within error of each other in abundance fitness: -0.009 ± 0.065 for the first, -0.012 ± 0.11 for the second.

First: V7F
Second: V7T
The abundance fitness of the first is lower: -0.428 ± 0.11 for the first, -0.048 ± 0.077 for the second.

V7E and V7N are within error of each other in abundance fitness: 0.012 ± 0.077 for the first, 0.154 ± 0.094 for the second.

Compared with V7M, V7A is higher in abundance fitness: -0.08 ± 0.07 for the first, 0.063 ± 0.058 for the second.

V7I and V7R are within error of each other in abundance fitness: -0.023 ± 0.098 for the first, -0.036 ± 0.043 for the second.

V7G and V7S are within error of each other in abundance fitness: -0.085 ± 0.053 for the first, 0 ± 0.043 for the second.

V7H and V7Y are within error of each other in abundance fitness: -0.055 ± 0.073 for the first, -0.161 ± 0.12 for the second.

V7C and V7W are within error of each other in abundance fitness: 0.004 ± 0.084 for the first, -0.072 ± 0.055 for the second.

First: V7K
Second: V3S
The abundance fitness of the first is lower: -0.086 ± 0.093 for the first, 0.134 ± 0.065 for the second.

Compared with V3Y, V3W is lower in abundance fitness: 0.018 ± 0.14 for the first, -0.34 ± 0.07 for the second.

F4D and F4Y are within error of each other in abundance fitness: 0.108 ± 0.11 for the first, 0.084 ± 0.085 for the second.

F4T and F4L are within error of each other in abundance fitness: 0.06 ± 0.066 for the first, -0.039 ± 0.059 for the second.

Going from F4I to F4H, the abundance fitness falls from 0.19 ± 0.12 to -0.059 ± 0.067.

F4Q and F4A are within error of each other in abundance fitness: -0.152 ± 0.084 for the first, -0.049 ± 0.067 for the second.

F4N and F4G are within error of each other in abundance fitness: 0.037 ± 0.08 for the first, -0.014 ± 0.055 for the second.

F4S and F4W are within error of each other in abundance fitness: -0.14 ± 0.071 for the first, -0.224 ± 0.075 for the second.

F4R and F4V are within error of each other in abundance fitness: -0.081 ± 0.049 for the first, -0.01 ± 0.052 for the second.

F4P and F4M are within error of each other in abundance fitness: -0.107 ± 0.068 for the first, -0.043 ± 0.079 for the second.

First: F4C
Second: S10V
The abundance fitness of the first is higher: 0.009 ± 0.082 for the first, -0.746 ± 0.088 for the second.

S10G and S10Q are within error of each other in abundance fitness: -0.443 ± 0.072 for the first, -0.453 ± 0.11 for the second.

Going from S10L to S10T, the abundance fitness rises from -0.693 ± 0.086 to -0.162 ± 0.065.

Going from S10C to S10K, the abundance fitness falls from -0.018 ± 0.06 to -0.592 ± 0.12.

S10I and S10R are within error of each other in abundance fitness: -0.588 ± 0.19 for the first, -0.476 ± 0.063 for the second.

S10Y and S10F are within error of each other in abundance fitness: -0.343 ± 0.071 for the first, -0.351 ± 0.062 for the second.

S10N and S10M are within error of each other in abundance fitness: -0.183 ± 0.11 for the first, -0.298 ± 0.1 for the second.

S10E and S10P are within error of each other in abundance fitness: -0.394 ± 0.11 for the first, -0.421 ± 0.11 for the second.

First: C9W
Second: C9E
The abundance fitness of the first is lower: -1.23 ± 0.17 for the first, -0.908 ± 0.12 for the second.

C9M and C9V are within error of each other in abundance fitness: -1.31 ± 0.42 for the first, -1.1 ± 0.093 for the second.

Going from C9Y to C9D, the abundance fitness rises from -1.26 ± 0.18 to -0.904 ± 0.13.

C9P and C9N are within error of each other in abundance fitness: -0.969 ± 0.15 for the first, -1.06 ± 0.21 for the second.

C9K and C9F are within error of each other in abundance fitness: -0.901 ± 0.21 for the first, -1.25 ± 0.3 for the second.

C9G and C9Q are within error of each other in abundance fitness: -0.93 ± 0.098 for the first, -1.05 ± 0.12 for the second.

C9L and C9S are within error of each other in abundance fitness: -1.22 ± 0.11 for the first, -1.01 ± 0.1 for the second.

C9A and C9H are within error of each other in abundance fitness: -1.12 ± 0.14 for the first, -1.26 ± 0.2 for the second.

Going from C9I to E8L, the abundance fitness rises from -1.19 ± 0.23 to -0.233 ± 0.047.

E8R and E8F are within error of each other in abundance fitness: -0.222 ± 0.047 for the first, -0.13 ± 0.084 for the second.

Compared with E8S, E8P is higher in abundance fitness: -0.124 ± 0.053 for the first, -0.001 ± 0.051 for the second.

E8K and E8T are within error of each other in abundance fitness: -0.214 ± 0.064 for the first, -0.234 ± 0.061 for the second.

First: E8H
Second: E8A
The abundance fitness of the first is higher: -0.049 ± 0.12 for the first, -0.365 ± 0.07 for the second.

E8N and E8D are within error of each other in abundance fitness: -0.17 ± 0.11 for the first, -0.206 ± 0.13 for the second.

Going from E8G to E8I, the abundance fitness falls from 0.051 ± 0.06 to -0.104 ± 0.089.

Going from E8W to E8Q, the abundance fitness rises from -0.39 ± 0.073 to -0.155 ± 0.066.

Compared with E8Y, E8V is lower in abundance fitness: -0.157 ± 0.075 for the first, -0.329 ± 0.064 for the second.

Compared with E8M, C12I is lower in abundance fitness: -0.35 ± 0.074 for the first, -1.1 ± 0.21 for the second.

Compared with C12G, C12W is lower in abundance fitness: -0.762 ± 0.067 for the first, -1.27 ± 0.18 for the second.

Going from C12L to C12K, the abundance fitness rises from -1.22 ± 0.11 to -0.943 ± 0.14.

Going from C12N to C12S, the abundance fitness falls from -0.746 ± 0.22 to -1.17 ± 0.13.

C12H and C12R are within error of each other in abundance fitness: -0.549 ± 0.15 for the first, -0.768 ± 0.072 for the second.

C12Q and C12T are within error of each other in abundance fitness: -1 ± 0.18 for the first, -0.868 ± 0.12 for the second.

C12D and C12M are within error of each other in abundance fitness: -0.939 ± 0.29 for the first, -1.11 ± 0.14 for the second.

First: C12A
Second: C12P
The abundance fitness of the first is higher: -0.883 ± 0.11 for the first, -1.29 ± 0.2 for the second.

C12E and C12V are within error of each other in abundance fitness: -0.997 ± 0.18 for the first, -1.1 ± 0.1 for the second.

For C12F, the abundance fitness was -1.23 ± 0.17.
